Results: publication PMC6718144, “Structure of the archaeal chemotaxis protein CheY in a domain-swapped dimeric conformation” (Acta Crystallographica. Section F, Structural Biology …, 2019)

Molecular target: the molecule itself
Test: cross-linking; glutaraldehyde, incubation 1, 2, 5 and 10 min before quenching; Coomassie-stained SDS-PAGE

B1: CheF from Pyrococcus horikoshii (PhCheF), non-His-tagged (natural protein, P. horikoshii)
chain: MPIFEARVKVGISSSWVTSRKVSWRDAIAQIESDRIVVKYLKMGEVVGEDSFPFSALIDLGVRIPDELKLNPEKDHFGIKFYIPGRGELLVIFTIEENLLIYDEKKFSEFVHKVFEVLINGKTVMLQLARIIGGAVNMESKWEEGWLRVIKVKSARTQKTERSIVVIIKDKRPVSIFSDLEDIEIEEVDMNGKRVRAWKIRHFHIDQSVTSYLYIPDKQTQLYVLRYLLKYNPAIMEFIMKVSDDFPTLKSEFQEIMEKEIKELEALDEMEKQILVALYSGINPLELHQFLGVSEKEIEEIYDRMIDKGLLKIVMIRKIVDLTNEGRKIVNKLLKYGLVSM
notes: CheF, Pyrococcus horikoshii, ORF PH0494, UniProt O58230; also called PH0494; source: E. coli BL21 Gold (DE3); purified (heating to 80°C, SEC); as lysate supernatant in the pull-down
For B1, the “stoichiometry N” value was 2.
